Laboratory results: paper PMC8842248 (Journal of Medicinal Chemistry, 2022)
*: point of attachment. fluorescein = fluorescein label on the N-terminus; Farnesyl = CC(C)=CCC/C(C)=C/CC/C(C)=C/C*; FAM = fluorescein

How the values were obtained:
Settings in all cases: both partners purified
[1] = target: T1, PDE6D (phosphodiesterase 6 delta), wild type, polyhistidine tag removed (UniProt O43924 1-150); assay: fluorescence polarisation; fluorescein-labeled KRAS S3I1 peptide at 5 nM, PDE6D 0-512 nM in twofold dilutions; 20 mM Tris pH 7.5, 150 mM NaCl, 2 mM DTT; quadratic fit in GraFit
T1 construct: Cloned into pRSF-Duet and pBDDB-SPR3; also called PDE6D WT; WT PDE6D; source: E. coli BL21 DE3, purified (HisTrap, TEV protease, reverse HisTrap, Superdex S75)

PDE6D M20K, untagged = target: T2, PDE6D M20K, untagged (UniProt O43924 1-150, M20K); assay: as above
T2 construct: PDE6D with M20K; Printed as 'untagged PDE6D.M20K' in the pulldown and release assay; also called attenuated PDE6D

[2] = target: T1, PDE6D (phosphodiesterase 6 delta), wild …; assay: fluorescence polarisation; fluorescein-…(OMe)-Far at 500 nM, PDE6D 20 to 0.156 μM in twofold dilutions, without or with compound at 500 μM; 20 mM Tris pH 7.5, 150 mM NaCl, 2 mM DTT, 5% DMSO

Row | Kd [1] [nM] | Kd (PDE6D M20K, untagged) [nM] | binding result [2] | Binder
1 | 0.05 | 2.62 ± 1.7 | – | fluorescein-DGKKKKKKSSTIC(Farnesyl)-OMe (also called KRAS S3I1 variant; source: synthetic peptide (JPT Innovative Peptide Solutions)) [KRAS S3I1 peptide, fluorescein-DGKKKKKKSSTIC(OMe)-farnesyl]
2 | – | – | binds | {FAM}-KKKKKKSKTKC(Farnesyl)-OMe (wild-type KRAS (KRAS4B) HVR peptide ending at the farnesylated C185; also called KRAS WT peptide) [fluorescein-labeled KRAS HVR peptide, FAM-KKKKKKSKTKC(OMe)-Far]
